23 sequences from the DeepSol protein solubility set can be followed below.

The data set can be described thus: soluble on expression in E. coli; label from the status in PepcDB or PDB records.
In the case of “MTEEIAGFQTSPKAQVQAAFEEIARRSMHALSFLHPSMPVYVSDFTLFEGQWTGCVITPWMLSAVIFPGPDQLWPLRKVSEKIGLQLPYGTMTFTVGELDGVSQYLSCSLMSPLSHSMSIEEGQRLTDDCARMILSLPVTNPDVPHAGRRALLFGRRSGENA”, the “soluble on expression in E. coli” value is “not soluble”.

Regarding “MHLPPKLALTTGVLLVALPLATPAWGQPPTPASPLVQQLNNGNWLDPKEAETLRDELYYQRAIHAYMTMLPALNVIGMRDGSEKVFGAGYNVLPVWKERMDARTMVPTPNADVIYSMSYLDLKKTGPLVVKAPANVIGMFTDFFQRTLTDVGAIGPDRARGGLYLILPPDYDGHVPSSYFVVKSPTYNVFLFFRTIMGQGKGKPDPAPAVKAAETTRVYPLWAEEKDIKPMEFPDGSGKHINMMYPVDQEYWTKLKEFVDYEPVSAIDPELRGVLASIGIVKGQPFKPTAREQELLKRAVETAPKMILAMRQLGREDKRHLYYKDRQWERAWAGATAEWMQDSYLDVNQRATFFQIAYSSAPAMVMRTTGAGSKYPFTARDANGEFLNGSATYKLRMPPDAPAALFWAVTAYNVTDGTMPETDQLMPSTNGYYDIPKQKDGSTEIWFGPQKPADVADAAFIKTIPNRNFLVTLRLYGAEDAFYDQTWKPDDVVKVKLEHHHHHH”, the “soluble on expression in E. coli” value was “not soluble”.

As for “TQGERRQAEQLAVQTARTISYMPPVKELIERKDGHAAQTQEVIEQMKEQTGAFAIYVLNEKGDIRSASGKSGLKKLERSREILFGGSHVSETKADGRRVIRGSAPIIKEQKGYSQVIGSVSVDFLQT”, the “soluble on expression in E. coli” value is reported as “not soluble”.

As for “MIKKGYHVAVVGATGAVGQKIIELLENEMKFNVVEVTLLSSKRSAGKKVRFKGREIIIQEAKTTSFEGVDIAFFSAGGEVSRQFVTHAVSSGAIVIDNTSEYRMAQGVPLVVPEVNAHTLKQHKGIIAVPNCSALQMVTALQPIRKSFGLERIIVSTYQAVSGSGIHAIHELREQAKSILAGEEVKSDILPVKKDKKHYPIAFNVLPQVDIFTDNDFTFEEVKMIQETKKILEDENLKMAATCVRVPVVSGHSESVYIELEKEASVAEIKGILMDAPGVILQDNPSEQLYPMPLYAEGKIDTFVGRIRKDPDTPNGFHLWIVSDNLLKGAAWNSVQIAETLVEKGIL”, the “soluble on expression in E. coli” value is listed as “not soluble”.

Take “MALMNILPFARFLLDQAVNEGDIAVDATVGNGHDTVYLAERVGDFGHVFGFDIQPEAITAASARLAEHGLCGRATLFERSHSELLEALPADVHGRIAGAVFNLGYLPGGNKQIVTQPESTIEAVRQLLSVMKPGGVIVLVVYHGHPEGKRERDALLDYVRSLDQRRVHALKYEFINRQNNPPFLIALENRADGGA”: the “soluble on expression in E. coli” value is given as “not soluble”.

In the case of “INDWSYSIGANFSYVTTKIMDLKGGDTPGQSVGDPLWAYYGYVCDGIFQNEEEIKNHPTQSMGTPVPGDLKYRDLNGDKVVDSKDRQVLGSYFPKINFGLNLSVQYKDFDLSALLQGAADVKSAPVAEIRYAFYNGGKVTEQHLDRWTPENPNATYPRLSMSDSKNRVTSSFWMQDASYAKLRNLQVGYSLPKQLISKYGISRLRVYCSIDNLFMISGFDGVDPEAISGNYYPLTRNYSFGLNVTF”, the “soluble on expression in E. coli” value is “not soluble”.

Take “EIHHRIKNNLQVICSLLSLEAERFSDEKMLETLKESQNRVASMALIHEELYKGDKNDTLDFAAYLRKLTADLFSSYNLGNDNISLKMDL”: the “soluble on expression in E. coli” value is reported as “not soluble”.

In the case of “MEEMGSRSDTIMVASLNRETKEIKLVSVYRDTLLQLSDGTYNKANAAYAYGGEEEAVAMLNKNLDLNIEHYVSVDFSVLVHVIDALGGIDINVEEAENGMDIIPYLNNYVVEVIKNTGVDSAPFTQLGQQHLNGVQATAYARLRYGGGDDYKRTERQRQVLEQIAIKAQKAKLSTINKIIDKVFDNVKTNFTLTETIAYAKDVKSYIFGETQGFPYESTTADLDVGNSVVATDLASDVTKLHQFLFGENDYTPSSTVQSISEDISNSTYDTGESYDTEYDEYGYSQDYSGYDSGYTDNSYGTGGYQDSGYGDGSSGNGYTEDTGGDYVPPSDGGGTDSGSSDSNSQIPDTGTGDSGDTGGESLELEHHHHHH”, the “soluble on expression in E. coli” value is given as “soluble”.

For “SNAAKPLPKEMEDFVQSSGENGVVVFSLGSMVSNMTEERANVIASALAQIPQKVLWRFDGNKPDTLGLNTRLYKWIPQNDLLGHPKTRAFITHGGANGIYEAIYHGIPMVGIPLFADQPDNIAHMKARGAAVRVDFNTMSSTDLLNALKRVINDPSYKENVMKLSRIQHD”, the “soluble on expression in E. coli” value is “soluble”.

For “MGSDKIHHHHHHMYRIRVFGDPVLRKRAKPVTKFDENLKKTIERMIETMYHYDGVGLAAPQVGISQRFFVMDVGNGPVAVINPEILEIDPETEVAEEGCLSFPEIFVEIERSKRIKVKYQNTRGEYVEEELEGYAARVFQHEFDHLNGVLIIDRISPAKRLLLRKKLMDIARTVKR”, the “soluble on expression in E. coli” value is reported as “soluble”.

Turning to “MSTSWRIRIMLTIHAKLVEAMLAQAHKDHPFEICGVIAGPEKSNLPLRLIPMRNAAQSETFFKFDPQEQLQVWREMEARGEEPIVIYHSHTHTPAYPSRTDVQYASQPQSHYVIVPTDPAYGEEIRSFRILDGMVTEERIRMINSYKAEWELSMEAMVALEHHHHHH”, the “soluble on expression in E. coli” value is listed as “soluble”.

In the case of “MDSTMSEHADVLIVGGGPVGALAALRLARQGRSVLLLEARAKDAEVRDARALALSWHSRRLLEEAGAWPADLPATAIDTVHVSQQGGCGRTRLDSADLGLPHLGAVVDYPALVAGLGGALEAAGVQVIWQCRVTAVKSLSQYACAEVETPQGKQLLTGSLLVLAEGGALAETLPGIRRLTHDYRQCALLAEVETELPPQGVAYERFAHAGPFALLPHGERYMLVWTRSQADAERLAAADAAVLRDELQQAFGERQGRILSIGPRASFPLALRQANRVTSGRVALIGNAAQTMHPVAAQGLNLGLRDAVGLADALENAADAGDARALKRYADSRKLDSHAVVGFTHGLIKLFDGHHPLMSRLRGVGMTALDALPSLRRKFAGHLVFGVRGLEHHHHHH”, the “soluble on expression in E. coli” value is reported as “soluble”.

Regarding “MGSDKIHHHHHHMEVAAVDSLEALYKMVAKLYRRLSASARKRLLEGVELAAEKGDPALAYHRLSTLARDYYGDSLPYASDGYYKTYKHTRCVGLPEPTKVSGVDVLEAIRRRRSRRSFSRRPLTLTEVSTILFHVAGITGLAWWGGPKRPYPSAGALQPVEAYLVVERVEGLKPGLYHYNPSGHCLEMLREGKLLGRLADVSLGQDHVAEAAAALVLTAVYTRTGSKYGHRSYRYVHWDTGFAGENVYLVCEALGLATVAVGAFYDDEMCGFLEIDCPWEMPMLVFPVGARG”, the “soluble on expression in E. coli” value is recorded as “not soluble”.

Take “MHNQTVRATVFKANAAAPQTKQIYEDDFSELYGEDIIAPPYNIIELKTIAEYSTILQQCIDAYRVNITGFGFDVEYTFDVNASDVDQAKKKRAEKDWARLEAFYKCLHFDESAEMILGYAIEDREKTGNGFMEVLRDGAGKPAGIEYLDVKYMRVCGAGEPVEVSFVYEENGKMKRIKRQKRFRKYVQMINGKKVFFKEYGDPRKMDIRTGEYVNTLAEKYQANEAIHLKIGSGVYGVPRWIGNIVNLYGARKAEELNFMYFKQGRHVPAAITVENGMLSEASYRELQEYMNDLESVENAHKFLLIEAEGIAKEKDLHGGEDITPVSVEIKSLAEILQNDALFLEYDEKSRNKLRSAFRLPPLYTGEAQEYNRATADTARKITEEQVFQPERKTLVNKLNTLLLPELNIHDVRLTLKGPDFRDPLEIAKVLGPFITAGAVSPNDLRDLAGRVLGKTLEEWPEDIYKRPAGQDAEKTNLAALMQELKESIEDIKTS”: the “soluble on expression in E. coli” value was “not soluble”.

“MLGAIIGDIVGSVYEWNNIKTKDFPLFRKDCFFTDDTVMTCAVAEAIMNGGQKDDFIDAMKKYGRMYPNADYGARFNAWLNSDNREPYNSFGNGSAMRISPCAWIMDCGFYAKTGIWPSSRGLTSLSAEVTHNHPEGVKGAMATADAIFLCRFYFGGYCREYEQSINDNPTECKRRIKDYIEKEYDYNLSQTLDEIRPNYRFNETCQETVPQAIIAFLESRDFEDAIRNAISLGGDSDTLAAITCSIAEAAYGIPDWIKDKAYSYLDEPLKDVVRRWENRIKAY”: the “soluble on expression in E. coli” value was “not soluble”.

Regarding “DVQLVESGGGSVQAGGSLRLSCAVSGYKDRNYCMGWFRRAPGKEREGVAVIDSSGRTAYADSVKGRFTISRDVALDTAYLQMNSLKPEDTAMYYCAAGWSSLGSCGTNRNRYNYWGQGTQVTVSSRGRHHHHHH”, the “soluble on expression in E. coli” value was “soluble”.

“MGSDKIHHHHHHMKSTTVPSEGGGGLDATTRTSVQPHPLHGPDATWQETNCYIDLWIELLHAWGLDPRAALPFTVAQDFEGDHFTFFKYPQADLETLYGTVVQEMAVYDTLQAHVVTQVERGHTVLVEVDSYYLPDTHATAYKREHVKTTVAIDNIDPHAQRLSYFHSLGYHSAHDEDYRGLMRLSRELSGNGNILFPYAECAKRVRPALTMPAMADASVALMRQHLDRLPAINPVTLWRREFDAHMDTLLARDDAYFHLYTFNLPRQLGANFEMLHHWLRWLDEQGRGNPLAARAAESAATIAAEAKVLQFRLARAVARRRADPCTQSLDVLECCYDKTVEGLLSAFGDTRLAAA”: the “soluble on expression in E. coli” value is on record as “not soluble”.

In the case of “ITDHNTLSGVSKMVEACKINKRFLNNKCPQILAGIEISCSDKHHVVVILNNKDMDMMQKAEDWLTNYIISDDGTYLPSLLVIEAFVEIGAIAYIAHFNTSDLFKKPKFLSGLYIDKLFSTKKMEIIGLSNMDSKLAIEEKLSNYTKRKFHFILDEDSHTLEELCTKPFWIK”, the “soluble on expression in E. coli” value was “not soluble”.

For the sequence “GPGSMLRNTDVRLFSTFALNPETSVAPHGPPRGLVNRYVSMGLPPWAAWCNKVNRYSLYRMSGVTQRSFLPKPPQEMDVIWLNERVRERVRTSRQVQNVYRQLKYPYVKTGIHYSDVLDHWVQVPMVEAAMFEVEKDGGFDNFILKRSGPELRSTYGERIRRHILVRQKEIQKNFVLQKQAQMLVESMEKEILPMEDGKKVEEVLEKYGIDKEQLLRDIARAAVAKKQQLASAVPQPSHVEVSTN”, the “soluble on expression in E. coli” value was “not soluble”.

As for “APYRYLAAGAADVISNLSAVKDWKLAHRLKGEEFSSSAAAMSEYSAQEVLSQINEIKKYEESSVWLVTKNILASGTAMAIAGNSRPGSGSEHLFAHALEAAGVENMLHGEMCAMGTVISMYLHDENWQQIKEAFDNLGISIRSRDYGIEDEIVINALRTAHAIRPERYTILGESDMSYDAAVKALELTGI”, the “soluble on expression in E. coli” value is on record as “not soluble”.

On to “MGSDKIHHHHHHMGAVVVKDLRKRIGKKEILKGISFEIEEGEIFGLIGPNGAGKTTTLRIISTLIKPSSGIVTVFGKNVVEEPHEVRKLISYLPEEAGAYRNMQGIEYLRFVAGFYASSSSEIEEMVERATEIAGLGEKIKDRVSTYSKGMVRKLLIARALMVNPRLAILDEPTSGLDVLNAREVRKILKQASQEGLTILVSSHNMLEVEFLCDRIALIHNGTIVETGTVEELKERYKAQNIEEVFEEVVKCSENF”, for which the “soluble on expression in E. coli” value was “soluble”.

Consider “MQIWHMEPFPCGDRRLPHHVFPPKKITTTQLGQLAGVQYYKVDLDDTASMKKRLSAVKTEKNVTFTDMFTVSETMLEFDDKMEQFYEPQVQKEDVISLVVEGTCYYDVEPEDDSWIRVQVEKGDLIVIPKGLSHRFTTTPQNFVKIQRFFSRKVEGNQG”, for which the “soluble on expression in E. coli” value was “not soluble”.

On to “MKIHPLSDVQAKQIGQGTSIWQYVVVLPGAVIGSDCNICSHCFIENAVVIGDRVTIKCGVQIWDGLRVEDDVFIGPNVTFTNDLFPRSKQHPKEFAKTVIQKGASIGANATILAGSTIGRNAMVGAGAVVTKSVPPNAIVVGNPARITGYVSTIPAQQKHSEIEVGENIGTVGQSAIPGVQFVRLPIIPDLRGSLSFAEFGQYLPFIPKRYFLVFDVQSREVRGEHAHKELHQFLVCVKGACSVMVDDGNCREEYILNTPGAALHIPPLVWGVQYKYSPDAVLMVLASDVYKPEDYIRDYDQFIALVKKLEHHHHHH”, for which the “soluble on expression in E. coli” value was “not soluble”.
